Source: patent publication US20230192896A1 (BIOVERATIV THERAPEUTICS, published 2023)

Experiments:
[1] = target: T1, free FIXa (activated Factor IX) (human, UniProt P00740 47-191; P00740 227-461); experiment: BLI; class meaning: paragraph 914
T1 construct: BLI antigen bought from Haematologic Technologies (HCIXA-0050); also called factor IXa

FIXa-SM (FIXa+EGR-CMK) = target: T2, FIXa-SM (FIXa+EGR-CMK) (human, UniProt P00740 47-191; P00740 227-461, EGR-CMK (L-Glu-Gly-Arg chloromethyl ketone) covalently bound to the active site); experiment: BLI; class meaning: paragraph 914
T2 construct: BLI antigen bought from Haematologic Technologies (HCIXA-EGR); also called FIXa with substrate mimic

| Binder | binding result [1] | binding result (FIXa-SM (FIXa+EGR-CMK)) |
| --- | --- | --- |
| BIIB-9-889 (antibody, V domains shown, IgG) VH: QLQLQESGPGLVKPSETLSLTCTVSGGSISSSSYYWGWIRQPPGKGLEWIGSIYYSGSTYYNPSLKSRVTISVDTSKNQFSLKLSSVTAADTAVYYCARDVGWYTEYFDLWGRGTLVTVSS VL: EIVMTQSPATLSVSPGERATLSCRASQSVSSNLAWYQQKPGQAPRLLIYGASTRATGIPARFSGSGSGTEFTLTISSLQSEDFAVYYCQQAFNWPPTFGGGTKVEIK | binds | binds |
| BIIB-9-433 (antibody, V domains shown, IgG) VH: QLQLQESGPGLVKPSETLSLTCTVSGGSISSSRYYWGWIRQPPGKGLEWIGSIYYSGSTYYNPSLKSRVTISVDTSKNQFSLKLSSVTAADTAVYYCARDAGYSAELFDYWGQGTLVTVSS VL: EIVLTQSPATLSLSPGERATLSCRASQSVSSYLAWYQQKPGQAPRLLIYDASNRATGIPARFSGSGSGTDFTLTISSLEPEDFAVYYCQQSSAYPPTFGGGTKVEIK | binds | binds |
| BIIB-9-445 (antibody, V domains shown, IgG) VH: QVQLVQSGAEVKKPGASVKVSCKASGYTFTSYYIHWVRQAPGQGLEWMGIINPSGGSTSYAQKFQGRVTMTRDTSTSTVYMELSSLRSEDTAVYYCARDVGQDYWFDLWGRGTLVTVSS VL: EIVMTQSPATLSVSPGERATLSCRASQSVSSNLAWYQQKPGQAPRLLIYSASTRATGIPARFSGSGSGTEFTLTISSLQSEDFAVYYCQQYDNFPFTFGGGTKVEIK | binds | binds |
| BIIB-9-470 (antibody, V domains shown, IgG) VH: EVQLVESGGGLVQPGGSLRLSCAASGFTFSSYWMSWVRQAPGKGLEWVANIKQDGSEKYYVDSVKGRFTISRDNAKNSLYLQMNSLRAEDTAVYYCARDAGIAWALDYWGQGTLVTVS VL: DIQMTQSPSTLSASVGDRVTITCRASQSISSWLAWYQQKPGKAPKLLIYKASSLESGVPSRFSGSGSGTEFTLTISSLQPDDFATYYCQHPHSWTFGGGTKVEIK | binds | binds |
| BIIB-9-625 (antibody, V domains shown, IgG) VH: QLQLQESGPGLVKPSETLSLTCTVSGGSISSSSYAWGWIRQPPGKGLEWIGSIYYSGSTYYNPSLKSRVTISVDTSKNQFSLKLSSVTAADTAVYYCARDRGWYTEVLDIWGQGTMVTVSS VL: DIQMTQSPSSLSASVGDRVTITCRASQSISSYLNWYQQKPGKAPKLLIYAASSLQSGVPSRFSGSGSGTDFTLTISSLQPEDFATYYCQQSDTDPPTFGGGTKVEIK | binds | binds |
| BIIB-9-1264 (antibody, V domains shown, IgG) VH: QVQLVQSGAEVKKPGASVKVSCKASGYTFTSYYMHWVRQAPGQGLEWMGIINPSGGSTSYAQKFQGRVTMTRDTSTSTVYMELSSLRSEDTAVYYCARDGDSSVYAFDYWGQGTLVTVSS VL: DIQMTQSPSSLSASVGDRVTITCQASQDITNYLNWYQQKPGKAPKLLIYDASNLETGVPSRFSGSGSGTDFTFTISSLQPEDIATYYCQQVDDYPFTFGGGTKVEIK | binds | binds |
| BIIB-9-1276 (antibody, V domains shown, IgG) VH: QLQLQESGPGLVKPSETLSLTCTVSGGSISSSSYYWGWIRQPPGKGLEWIGSIYYSGSTYYNPSLKSRVTISVDTSKNQFSLKLSSVTAADTAVYYCARDVGRTYELFDIWGQGTMVTVSS VL: DIQMTQSPSSVSASVGDRVTITCRASQGISSWLAWYQQKPGKAPKLLIYAASSLQSGVPSRFSGSGSGTDFTLTISSLQPEDFATYYCQQGNSFPITFGGGTKVEIK | binds | binds |
| BIIB-9-1265 (antibody, V domains shown, IgG) VH: QLQLQESGPGLVKPSETLSLTCTVSGGSISSSSYYWGWIRQPPGKGLEWIGSIYYSGSTYYNPSLKSRVTISVDTSKNQFSLKLSSVTAADTAVYYCARDGRHYYELFDYWGQGTLVTVSS VL: DIQMTQSPSSVSASVGDRVTITCRASQGISSWLAWYQQKPGKAPKLLIYAASSLQSGVPSRFSGSGSGTDFTLTISSLQPEDFATYYCQQGNSFPITFGGGTKVEIK | binds | binds |
| BIIB-9-1267 (antibody, V domains shown, IgG) VH: QVQLVQSGAEVKKPGASVKVSCKASGYTFTSYYMHWVRQAPGQGLEWMGIINPSGGSTSYAQKFQGRVTMTRDTSTSTVYMELSSLRSEDTAVYYCARDHGWAIYGMDVWGQGTTVTVSS VL: not shown | binds | binds |
| BIIB-9-1268 (antibody, V domains shown, IgG) VH: QVQLVQSGAEVKKPGASVKVSCKASGYTFTSYYMHWVRQAPGQGLEWMGIINPSGGSTSYAQKFQGRVTMTRDTSTSTVYMELSSLRSEDTAVYYCARDPPSWYVFDIWGQGTMVTVSS VL: EIVMTQSPATLSLSPGERATLSCRASQSVSSYLAWYQQKPGQAPRLLIYDASNRATGIPARFSGSGSGTDFTLTISSLEPEDFAVYYCQQATVWPFTFGGGTKVEIK | binds | binds |
| BIIB-9-1270 (antibody, V domains shown, IgG) VH: QVQLVQSGAEVKKPGASVKVSCKASGYTFTSYYMHWVRQAPGQGLEWMGIINPSGGSTSYAQKFQGRVTMTRDTSTSTVYMELSSLRSEDTAVYYCARDTGGYAFDIWGQGTLVTVSS VL: EIVLTQSPATLSLSPGERATLSCRASQSVSSYLAWYQQKPGQAPRLLIYDASNRATGIPARFSGSGSGTDFTLTISSLEPEDFAVYYCQQSADFPFTFGGGTKVEIK | binds | binds |
| BIIB-9-1272 (antibody, V domains shown, IgG) VH: QVQLVQSGAEVKKPGASVKVSCKASGYTFTSYYMHWVRQAPGQGLEWMGIINPSGGSTSYAQKFQGRVTMTRDTSTSTVYMELSSLRSEDTAVYYCARDTGGYAFDIWGQGTLVTVSS VL: DIQMTQSPSSVSASVGDRVTITCRASQGISSWLAWYQQKPGKAPKLLIYAASSLQSGVPSRFSGSGSGTDFTLTISSLQPEDFATYYCQQASSFPFTFGGGTKVEIK | binds | binds |
| BIIB-9-1282 (antibody, V domains shown, IgG) VH: QVQLVQSGAEVKKPGASVKVSCKASGYTFTSYYMVWVRQAPGQGLEWMGIINPSGGSTSYAQKFQGRVTMTRDTSTSTVYMELSSLRSEDTAVYYCARVPTYRYSYLAFDIWGQGTMVTVSS VL: EIVMTQSPATLSVSPGERATLSCRASQSVSSNLAWYQQKPGQAPRLLIYGASTRATGIPARFSGSGSGTEFTLTISSLQSEDFAVYYCQQHNHLPITFGGGTKVEIK | binds | binds |

Second part, the binder after the results:

| binding result [1] | binding result (FIXa-SM (FIXa+EGR-CMK)) | Binder |
| --- | --- | --- |
| binds | binds | BIIB-9-1269 (antibody, V domains shown, IgG) VH: QVQLVQSGAEVKKPGASVKVSCKASGYTFTSYYMHWVRQAPGQGLEWMGIINPSGGSTSYAQKFQGRVTMTRDTSTSTVYMELSSLRSEDTAVYYCARDRGQYYHFDLWGRGTLVTVSS VL: DIQMTQSPSSVSASVGDRVAITCRASQGISSWLAWYQQKPGKAPKLLIYAASSLQSGVPSRFSGSGSGTDFTLTISSLQPEDFATYYCQQASSFPFTFGGGTKVEIK |
| binds | binds | BIIB-9-1271 (antibody, V domains shown, IgG) VH: QVQLVQSGAEVKKPGASVKVSCKASGYTFTSYYMHWVRQAPGQGLEWMGIINPSGGSTSYAQKFQGRVTMTRDTSTSTVYMELSSLRSEDTAVYYCARDTGGYAFDIWGQGTLVTVSS VL: EIVMTQSPATLSVSPGERATLSCRASQSVSSNLAWYQQKPGQAPRLLIYGASTRATGIPARFSGSGSGTDFTLTISSLQPEDFATYYCQQGFSFPFTFGGGTKVEIK |
| binds | binds | BIIB-9-1273 (antibody, V domains shown, IgG) VH: QVQLVQSGAEVKKPGASVKVSCKASGYTFTSYYMHWVRQAPGQGLEWMGIINPSGGSTSYAQKFQGRVTMTRDTSTSTVYMELSSLRSEDTAVYYCARDTGGYAFDIWGQGTLVTVSS VL: EIVLTQYPATLSLSPGERATLSCRASQSVSSYLAWYQQKPGQAPRLLIYDASNRATGIPARFSGSGSGTDFTLTISSLEPEDFAVYYCQQSANFPFTFGGGTKVEIK |
| binds | binds | BIIB-9-1274 (antibody, V domains shown, IgG) VH: QVQLVQSGAEVKKPGASVKVSCKASGYTFTSYYMHWVRQAPGQGLEWMGIINPSGGSTSYAQKFQGRVTMTRDTSTSTVYMELSSLRSEDTAVYYCARDTGGYAFDIWGQGTLVTVSS VL: DIQMTQSPSSVSASVGDRVTITCRASQGISSWLAWYQQKPGKAPKLLIYAASSLQSGVPSRFSGSGSGTDFTLTISSLQPEDFATYYCQQANSFPFTFGGGTKVEIK |
| binds | binds | BIIB-9-1277 (antibody, V domains shown, IgG) VH: QVQLVQSGAEVKKPGASVKVSCKASGYTFTSYYMHWVRQAPGQGLEWMGIINPSGGSTSYAQKFQGRVTMTRDTSTSTVYMELSSLRSEDTAVYYCARGGTGYYYGSGSRDGYHYYYGMDVWGQGTTVTVSS VL: EIVMTQSPATLSVSPGERATLSCRASQSVSSYLAWYQQKPGQAPRLLIYDASNRATGIPARFSGSGSGTDFTLTISSLEPEDLAVYYCQQSANWPPTFGGGTKVEIK |
| binds | binds | BIIB-9-1278 (antibody, V domains shown, IgG) VH: QVQLVQSGAEVKKPGASVKVSCKASGYTFTSYYMVWVRQAPGQGLEWMGIINPSGGSTSYAQKFQGRVTMTRDTSTSTVYMELSSLRSEDTAVYYCARGPGELGYYLAFDIWGQGTMVTVSS VL: EIVMTQSPATLSVSPGERATLSCRASQSVSSNLAWYQQKPGQAPRLLIYGASTRATGIPARFSGSGSGTEFTLTISSLQSEDFAVYYCQQHANFPPTFGGGTKVEIK |
| binds | binds | BIIB-9-1284 (antibody, V domains shown, IgG) VH: QVQLVQSGAEVKKPGASVKVSCKASGYTFTSYYMVWVRQAPGQGLEWMGIINPSGGSTSYAQKFQGRVTMTRDTSTSTVYMELSSLRSEDTAVYYCARVPTYRYSYLAFDIWGQGTMVTVSS VL: EIVLTQSPATLSVSPGERATLSCRASQSVGSNLAWYQQKPGQAPRLLIYGASTRATGIPARFSGSGSGTEFTLTISSLQSEDFAVYYCQQHNHLPITFGGGTKVEIK |
